B1: RF2a-ΔPΔQ: RF2a mutant, proline- and glutamine-rich domains removed, SEQ ID NO:71 (protein)
chain: MGHRRAHSEILSLPEDLDLCAAGGGDGPSLSDENDEELFSMFLDVEKLNSTCGASSEAEAESSSAAAHGARPKHQHSLSMDESMSIKAEELVGASPGTEGMSSAEAKKAVSAVKLAELALVDPKRAKRIWANRQSAARSKERKMRYIAELERKVQTLQTEATTLSAQLALLQRDTSGLTTENSELKLRLQTMEQQVHLQDALNDTLKSEVQRLKVATGQMANGGGMMMNFGGMPHQ
modifications: This sequence was artificially derived and/or created by the inventors.
B2: RF2a-ΔPΔA: RF2a mutant, proline-rich and acidic domains removed, SEQ ID NO:70 (protein)
chain: MSSSAAAHGARPKHQHSLSMDESMSIKAEELVGASPGTEGMSSAEAKKAVSAVKLAELALVDPKRAKRIWANRQSAARSKERKMRYIAELERKVQTLQTEATTLSAQLALLQRDTSGLTTENSELKLRLQTMEQQVHLQDALNDTLKSEVQRLKVATGQMANGGGMMMNFGGMPHQFGGNQQMFQNNQAMQSMLAAHQLQQLQLHPQAQQQQVLHPQHQQQQPLHPLQAQQLQQAARDLKMKSPMGGQSQWGDGKSGSSGN
modifications: This sequence was artificially derived and/or created by the inventors.
B3: RF2a-3Δ: RF2a mutant, glutamine-rich, proline-rich and acidic domains removed, SEQ ID NO:72 (protein)
chain: MSSSAAAHGARPKHQHSLSMDESMSIKAEELVGASPGTEGMSSAEAKKAVSAVKLAELALVDPKRAKRIWANRQSAARSKERKMRYIAELERKVQTLQTEATTLSAQLALLQRDTSGLTTENSELKLRLQTMEQQVHLQDALNDTLKSEVQRLKVATGQMANGGGMMMNFGGMPHQ
modifications: This sequence was artificially derived and/or created by the inventors.

Assays:
[1] = system: pBII-48Ca::GUS; assay: Transactivation of pBII-48Ca::GUS by RF2a and RF2a mutants in BY-2 protoplasts; assay type: cell-based, tobacco; details: co-transfected with pBII-48Ca::GUS, 24 hours after electroporation, normalized with GFP
Description: The relative activity of RF2a and the RF2a mutants (described in Example 8) was then measured. First, a chimeric promoter was developed with a single copy of the Box II element fused to the 5′ end of a minimal CaMV 35S promoter comprising nucleotides −48 to +8 (SEQ ID NO:66). The chimeric promoter was ligated to the uidA coding sequence to create the reporter pBII-48Ca::GUS.
To analyze the function of the several domains of RF2a, effectors were created by inserting coding sequences of RF2a or the mutants of RF2a (described in Example 8) downstream of the enhanced CaMV 35S promoter in the pMON999 vector (a gift from Monsanto Company, St. Louis, Mo.). The resultant constructs, p35S::RF2a, p35S::RF2a-ΔP, p35S::RF2a-ΔQ, p35S::RF2a-ΔPΔA, p35S::RF2a-ΔPΔQ and p35S::RF2a-3Δ, were co-transfected into BY-2 protoplasts with pBII-48Ca::GUS (FIG. 17(A)). Plasmid pCat-GFP, in which the GFP gene was driven by CaMV 35S promoter, was co-introduced to serve as an internal control. The following describes, in greater detail, the construction of these vectors and the methods employed in transfecting the same into BY-2 protoplasts.
Plasmids for protoplast transfection—The coding sequences for mutants of RF2a were released from pET28a-derived plasmids and cloned into the plant expression vector pMON999 (a gift from Monsanto Company, St. Louis, Mo.) to place each gene downstream of an enhanced CaMV 35S promoter, followed by a nopaline synthase terminator sequence. The resulting effector constructs were named p35S::RF2a, p35S::RF2a-ΔP, p35S::RF2a-ΔQ, p35S::RF2a-ΔPΔA, p35S::RF2a-ΔPΔQ and p35S::RF2a-3Δ. The reporter gene construct, pBII-48Ca::GUS, was built using PCR to introduce the Box II element into a minimal CaMV 35S promoter comprising nucleotides −48 to +8 with primers BII-48Ca 5′ (SEQ ID NO:53) (which contained the Box II element) and GUS 3′ (SEQ ID NO:36) using a p35S:GUS plasmid as template. The PCR product was restricted with HindIII and NcoI, and the resulting fragment was inserted into p35S::GUS to replace the original 35S promoter.
Transfection of tobacco BY-2 protoplasts—The protoplasts were isolated from tobacco cell line BY-2 as described by Watanabe et al. (1987). Approximately one million protoplasts were transfected by electroporation with 20 μg of effector construct DNA, 15 μg of herring sperm DNA, 2.5 μg of reporter gene construct DNA, and 15 μg of pCat-GFP DNA. In samples with reporter gene alone, the total amount of DNA was adjusted by adding 20 μg of herring sperm carrier DNA. The electroporation parameters used were 300 V and 250 microfarads with the Bio-Rad electroporation system (Bio-Rad Laboratories, Hercules, Calif.). Protoplast samples were cultured in Murashige and Skoog medium with 0.4 M mannitol, pH 5.8, at 28° C. The protoplasts were collected 24 hours after electroporation.

[2] = system: Box IIm1 element; assay: Electrophoretic mobility shift assay; assay type: binding; details: 100 ng purified protein, 32P-labeled Box IIm1 DNA probe
Description: The purified mutant proteins were then analyzed by SDS-PAGE to confirm that each protein was its expected size (FIG. 16(B)). To confirm that each of the mutant proteins bind to the DNA target, i.e., the Box II element and/or its operational derivatives, gel mobility shift assays were carried out with the purified recombinant proteins (FIG. 16(C)). The electrophoretic mobility shift assays were carried out essentially as described in Yin and Beachy (1995). 100 ng of proteins purified from the transformed E. coli were incubated with ^32P-labeled Box IIm1 DNA probe followed by electrophoresis in a 5% acrylamide gel (Yin et al., 1997) (FIG. 16(C)).

[3] = system: Nicotiana tabacum cv. Xanthi NN; assay: Phenotype of transgenic tobacco plants overexpressing RF2a or RF2a mutants; assay type: in vivo; details: for phenotype of transgenic tobacco plants: CaMV 35S promoter driven, T1 generation, greenhouse; for cross-sections of the stem of transgenic plants: two-month old tobacco, toluidine blue O
Source text: (Yin et al., 1997; Petruccelli et al., 2001). […] Fifteen or more independent transgenic tobacco lines were developed with the constructs described below through Agrobacterium-mediated transformation.
Plasmids for Agrobacterium-mediated transformation—The fusion genes described above relating to the plant expression constructs comprising RF2a deletion mutants were released from pMON999-derived plasmids using NotI (blunted) and cloned into the binary vector pGA-E::GUS (Petruccelli et al., 2001) using the blunt HindIII site (downstream of a CaMV 35S promoter sequence). The final plasmids were named pGA-E::GUS/P-35S::ΔP, pGA-E::GUS/P-35S::ΔQ, pGA-E::GUS/P-35S::ΔPΔA and pGA-E::GUS/P-35S::ΔPΔQ. A plasmid encoding full-length RF2a, p35S::RF2a, was also constructed using the methods described herein.
Tobacco transformation—the plasmids described above were introduced into Agrobacterium tumefaciens strain LBA4404 and used for tobacco transformation. Leaf discs from Nicotiana tabacum cv. Xanthi NN were transformed with the various plasmids following the protocol of Horsch et al. (1988). At least 15 independent transgenic lines were produced with each gene construct. Transgenic plants were self-fertilized, and T1 seeds were collected. The T1 seeds were germinated on Murashige and Skoog medium (Murashige and Skoog, 1962) with kanamycin (100 mg/L) selection, and Kan^r seedlings were grown in a greenhouse for observation.
The phenotype caused by 35S::RF2a-ΔPΔA was similar to, but less severe than, the phenotype caused by 35S::RF2a-3Δ. […] (FIG. 19(C)).

Row | Molecule | activation function (relative GUS activity) [1] | binding in gel mobility shift assay [2] | phenotype of transgenic tobacco plants [3] | phenotype of transgenic tobacco plants ([3]; listed as 35S::RF2a-ΔPΔA) | independent transgenic lines with stunting, curved leaves and delayed flowering ([3]; T1 generation tobacco) | internodal elongation of transgenic plants ([3]; transgenic tobacco) | cross-sections of the stem of transgenic plants [3]
1 | B1 | greater than that of full-length RF2a | bind to the Box IIm1 element | did not exhibit abnormal phenotypes | – | – | – | –
2 | B2 | dropped to near basal level | bind to the Box IIm1 element | severe stunting phenotype | mild to severe stunting with curved leaves and substantial delay in flowering times | 11 of 15 | strongly repressed | xylem of stunted plants was not uniformly lignified and that phloem development was altered
3 | B3 | dropped to near basal level | bind to the Box IIm1 element | severe stunting phenotype | – | – | – | xylem of stunted plants was not uniformly lignified and that phloem development was altered

Source: US7847064B2, “Methods and compositions for regulating gene expression in plant cells” (Donald Danforth Plant Science Center, priority 2004, dated 2010)
